Results reported in patent US20230192803A1 (published 2023).

Tests used:
Ad293 STEAP3-2 = assay: flow cytometry cell binding; Ad293 STEAP3-2 chimera cells; affinity calculated from EC50
Ad293 Murine STEAP3-2 = assay: flow cytometry cell binding; Ad293 murine STEAP3-2 chimera cells; affinity calculated from EC50

EC50 (Ad293 STEAP3-2): 20.2 nM | EC50 (Ad293 Murine STEAP3-2): 28.2 nM
B1: 40A3 scFv-Fc (Fc fusion)
scFv: EIVMTQSPATLSVSPGERATLSCRASQSVNSNLAWYQQKPGQAPRLLIYGASTRATGIPARFSGSGSGTEFTLTISSLQSEDFAVYYCQQYNNWPFTFGPGTKVDIKGGGGSGGGGSGGGGSGGGGSQVQLQQSGPGLVKPSQTLSLTCAISGDSVSRNSAVWNWIRQSPSRGLEWLGRTYYRSKWYNDYAVSVKSRITINPDTSKNQFSLQVNSVTPEDTAVYYCARGLLQNNFYYYMDVWGKGTTVTVSS
